Five molecules from patent US20150111954, “LIN28/LET-7 CRYSTAL STRUCTURES, PURIFICATION PROTOCOLS, AND MOLECULAR PROBES SUITABLE FOR SCREENING ASSAYS AND THERAPEUTICS” (PRESIDENT AND FELLOWS OF HARVARD UNIVERSITY, published 2015) can be followed below.

For data set [1], the target named is T1, Lin28a delta-delta (terminal truncations and 9-residue linker deletion) (Mus musculus, UniProt Q8K3Y3 SEQ:4-151).
T1 chain: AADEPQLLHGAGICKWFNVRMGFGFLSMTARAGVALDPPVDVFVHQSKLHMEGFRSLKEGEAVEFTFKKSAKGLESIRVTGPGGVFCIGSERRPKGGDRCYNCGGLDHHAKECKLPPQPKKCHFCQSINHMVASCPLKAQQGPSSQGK
Nature of the data set: EMSA; 9-residue linker deletion supports binding; slightly lower affinity than full-length suggested. Conditions: tags: His6 removed by TEV; domain-swapped dimer in crystal); label: 5'-32P; stem-loop with 3' single-stranded GGAG. The source says:
FIG. 2. Linker between CSD and CCHCx2 is flexible. See also FIG. 9. (A) Longitudinal (R1) and transverse (R2) relaxation rates and the ratio (R2/R1), plotted against the residue number. Relatively more dynamic regions are marked with a light yellow box. (B) Alignment of internal deletions in the linker, indicated with the number of amino acids deleted on left (SEQ ID NOS 84-87, respectively, in order of appearance). (C) EMSAs with preE-let-7d as probe, mixed with increasing concentrations (0.005, 0.02, 0.08, 0.3, 1.2, 5, 20 μM) of linker deletion constructs of Lin28(16-184): *, free probe; **, complex. (D) Quantitative RT-PCR results for in vivo levels of mature let-7g. Lin28Δ is truncated at both N and C termini. Lin28ΔΔ has both of the terminal extensions and the linker removed. The standard deviation is calculated from triplicate experiments; U6 RNA levels were used for normalization. (E) and (F) Western blots of Trizol bottom layer for transfections shown in (D).
A general note: Mobility shift assays separate free from complexed probe on a gel.

A further data set deals with T2, Lin28a full-length (Mus musculus, UniProt Q8K3Y3 Q8K3Y3:1-209).
T2 sequence: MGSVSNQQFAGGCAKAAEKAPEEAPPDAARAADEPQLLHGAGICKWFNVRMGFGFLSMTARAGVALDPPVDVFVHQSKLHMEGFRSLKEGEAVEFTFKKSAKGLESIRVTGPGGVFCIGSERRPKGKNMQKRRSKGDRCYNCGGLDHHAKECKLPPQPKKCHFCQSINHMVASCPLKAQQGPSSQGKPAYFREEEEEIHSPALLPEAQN
The data set is described as follows: EMSA. Conditions: tags: His6 removed by TEV; label: 5'-32P; stem-loop with 3' single-stranded GGAG. The method, then: (§1) FIG. 9. Domain mapping and structural analysis of Lin28 protein, Related to FIG. 2. (A) EMSA of Lin28 truncations. […] Full-length preE-let-7d was used as probe, titrated with protein constructs indicated (left to right: 8 nM, 33 nM, 130 nM, 520 nM, 2.1 μM, 8.3 μM, 33.3 μM). (B) ¹⁵N-NOESY of the linker region. Homonuclear 1H/1H NOE spectral strips belonging to the residue numbers marked in red were taken from a 3D 15N-selected NOESY-HSQC, and only the amide region is shown for inter-residue backbone NOEs. Diagonal peaks are marked with a diagonal line and crosspeaks are marked with a cross. The linker region is missing inter-residue NOEs, while CCHC has amide-amide interactions evident from crosspeaks. (C) Plot of secondary shifts for Ca, CP, and C′ vs. residue number. Domain boundaries, consistent as in FIG. 2A, are marked with dashed grey lines. (D) EMSA of protein linker deletion constructs. Increasing amounts of protein (Lin28 35-187, with or without 9-residue internal deletion in the linker region) were added to radioactively labeled fragment of pre-let-7f-1 indicated. The concentrations of protein in each lane are as follows: 5 nM, 20 nM, 78 nM, 313 nM, 1.2 μM, 5 μM, 20 μM. (E) In vivo processing assay of pri-miR-122 and pri-miR-16, similar to main FIG. 2D. 293T cells (12 well) were co-transfected with Lin28 (100 ng) with pri-miR-122 or pri-miR-15-16 (750 ng). […]

Data set [2] addresses T3, Lin28a (16-184), CSD-linker-CCHCx2 (Mus musculus, UniProt Q8K3Y3 SEQ:4-172).
T3 chain: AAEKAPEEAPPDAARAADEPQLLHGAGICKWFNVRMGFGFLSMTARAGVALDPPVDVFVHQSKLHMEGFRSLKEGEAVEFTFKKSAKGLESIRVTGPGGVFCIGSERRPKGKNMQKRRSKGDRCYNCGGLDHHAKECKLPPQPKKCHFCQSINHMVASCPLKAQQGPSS
Nature of the data set: EMSA; comparable affinity to full-length; Kd bins only in figure; 20 mM Tris 7.5, 100 mM NaCl, 50 uM ZnCl2, yeast tRNA. Conditions: tags: His6 removed by TEV (GSG remnant); label: 5'-32P; stem-loop with 3' single-stranded GGAG. The method, then: as §1

The target of data set [3] is T1, Lin28a delta-delta (terminal …). The data set is described as follows: structure; crystal structure 2.8 A, Zn. Conditions: tags: His6 removed by TEV; domain-swapped dimer in crystal); stem-loop with 3' single-stranded GGAG. The method, then:
(§2) Crystals of all three complexes were produced by vapor diffusion, using the hanging drop method. Concentrated complexes (10 mg/mL) were mixed 1 μL:1 μL with reservoir solution, and crystals grew overnight. Reservoir solution contained 0.6M NaH₂PO₄, 1.4M K₂HPO₄ and 5% glycerol for preEM-let-7d and preEM-let-7f-1 complexes; for preEM-let-7g, it contained 0.1M Tris pH 8.0, 32% w/v PEG 4000, and 0.2M Sodium Acetate. Crystals were harvested with mother liquor supplemented with 20% glycerol and frozen in liquid nitrogen. Diffraction data was indexed and scaled using XDS (Kabsch, 2010) and SCALA (Evans, 2006) in a workflow provided by autoPROC (Vonrhein et al., 2011). Experimental phases were obtained for Lin28:pre-let-7d complex by anomalous scattering from zinc atoms (SAD), using HKL2MAP (Schneider and Sheldrick, 2002) and AutoSol (Terwilliger et al., 2009). The structures of Lin28: preEM-let-7f-1 and Lin28: preEM-let-7g were solved by molecular replacement with Lin28: preEM-let-7d as search model using Phaser (McCoy et al., 2007). Density modification and NCS averaging over 6 or 2 copies were performed with PHENIX (Adams et al., 2010) to obtain electron density maps for model building with COOT (Emsley and Cowtan, 2004) and PHENIX was used for further refinement. […]

For a further data set, the target named is T4, Lin28b (Homo sapiens, UniProt Q6ZN17 Q6ZN17:1-250).
T4 sequence: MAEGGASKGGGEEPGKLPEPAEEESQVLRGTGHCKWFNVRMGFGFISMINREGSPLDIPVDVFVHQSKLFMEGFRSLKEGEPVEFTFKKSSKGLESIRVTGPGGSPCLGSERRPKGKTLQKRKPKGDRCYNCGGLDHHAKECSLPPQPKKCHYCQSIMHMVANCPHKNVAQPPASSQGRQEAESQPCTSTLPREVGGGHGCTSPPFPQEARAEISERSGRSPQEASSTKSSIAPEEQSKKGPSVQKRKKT
The data set is described as follows: EMSA; effects of preEM point mutations equivalent to mouse Lin28a. Conditions: stem-loop with 3' single-stranded GGAG.

For a further data set, the target named is T5, Lin28a (Homo sapiens, UniProt Q9H9Z2 Q9H9Z2:2-209).
T5 sequence: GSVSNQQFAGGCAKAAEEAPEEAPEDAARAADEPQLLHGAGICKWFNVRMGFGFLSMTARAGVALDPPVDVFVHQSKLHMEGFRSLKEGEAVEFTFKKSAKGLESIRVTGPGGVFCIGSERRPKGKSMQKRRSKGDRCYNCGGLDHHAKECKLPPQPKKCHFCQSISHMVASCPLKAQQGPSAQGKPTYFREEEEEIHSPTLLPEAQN
The data set is described as above. Conditions: stem-loop with 3' single-stranded GGAG.

Data set [4] concerns the target T3, Lin28a (16-184), CSD-linker-CCHCx2. The data set is described as follows: EMSA; minimal preE, sufficient for high-affinity binding; complex also studied by NMR. Conditions: tags: His6 removed by TEV (GSG remnant); stem-loop with 3' single-stranded GGAG.
Data set [5] deals with T1, Lin28a delta-delta (terminal …). The data set is described as follows: structure; crystal structure 2.9 A, Zn. Conditions: tags: His6 removed by TEV; domain-swapped dimer in crystal); stem-loop with 3' single-stranded GGAG. The procedure:
as §2

Data set [6] has the same target. Nature of the data set: EMSA; probe is a pre-let-7f-1 fragment. Conditions: tags: His6 removed by TEV; domain-swapped dimer in crystal); label: 5'-32P.
For data set [7] the target is unchanged. Nature of the data set: structure; crystal structure 2.0 A, Zn. Conditions: tags: His6 removed by TEV; domain-swapped dimer in crystal); stem-loop with 3' single-stranded GGAG. The method, then:
as §2

In the case of UUAGGGCAGAGAUUUUGCCCACAAGGAGUU (ssRNA) [preE-let-7d], the binding result (in [1]; with Lin28a full-length; in [2]) was “binds” each time.
As to GGGGUAGUGAUUUUACCCUGGAG (ssRNA) [preEM-let-7f-1], the binding result in [3] is “binds”.
For GGGCAGAGAUUUUGCCCGGAG (ssRNA) [preEM-let-7d], the binding result (with Lin28b; with Lin28a; in [4]; in data set [5]) was “binds” each time.
With GUGGGGUAGUGAUUUUACCCUGUUUAGGAGAU (ssRNA) [preE-let-7f-1], the binding result in [6] is recorded as “binds”.
GGGGUCUAUGAUACCACCCCGGAG (ssRNA) [preEM-let-7g]: the binding result in data set [7] is on record as “binds”.
